This note sets out measurements from the RNAGym collection of RNA variant scans (doi:10.1093/molbev/msab373).

B1: Azoarcus group I ribozyme (parent)
chain: GUGCCUUGCGCCGGGAAACCACGCAAGGGAUGGUGUCAAAUUCGGCGAAACCUAAGCGCCCGCCCGGGCGUAUGGCAACGCCGAGCCAAGCUUCGGCGCCUGCGCCGAUGAAGGUGUAGAGACUAGACGGCACCCACCUAAGGCAAACGCUAUGGUGAAGGCAUAGUCCAGGGAGUGGCGAAAGUCACACAAACCGG

Variants of B1 are the subject of the data set. Nature of the data set: reverse-splicing fitness (ratio to wild type); higher = more active; in vitro selection; Mg2+ level not given. Summed up:
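An in vitro group I ribozyme library with randomized positions was T7-transcribed and gel-purified. In triplicate, 10 pmol RNA in EPPS pH 7.5 was reacted with 50 pmoles of a 30-nt RNA substrate for 1 h at 37 °C across several added MgCl2 levels (1–48 mM), then stopped with EDTA. Products were reverse transcribed from a substrate-complementary primer, PCR-amplified and sequenced (HiSeq 4000). Fitness is a variant's read proportion after selection over that before, normalised to wild type.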
For GUGCCUUGCGCCGGGAAACCACGCAAGGGAUGGUGUCAAAUUCGGCGAAACCUAAGCGCCCGCCCGGGCGUAUGGCAACGCAGAGCCAAGCUUCGGCGCCUGCGCCGAUGGAGGUGUAGUGACUAGACGGCACCCACCUAAGGCCAACGGUAUGGUGAAGGCAUAGUCUAGGGAGUGGCGAAAGUCACACAAACCGG, the reverse-splicing fitness was found to be 0.00332. The figure for GUGCCUUGCGCCGGGAAACCACGCAAGGGAUGGUGUCAAAUUCGGCGAAACCUAAGCGCCCGCCCGGGCGUAUGGCAACGCAGAGCCAAGCUUCGGCGCCUGCGCCGAUGGAGGUGUAGUGACUAGACGGCACCCACCUAAGGCCAACGCUAUGGUGAAGGCAUAGUCAAGGGAGGGGCGAAAGUCACACAAACCGG is 0.00163; for GUGCCUUGCGCCGGGAAACCACGCAAGGGAUGGUGUCAAAUUCGGCGAAACCUAAGCGCCCGCCCGGGCGUAUGGCAACGCAGAGCCAAGCUUCGGCGCCUGCGCCGAUGGAGGUGUAGUGACUAGACGGCACCCACCUAAGGCCAACGCUAUGGUGAAGGCAUAGUCAAGGGAGAGGCGAAAGUCACACAAACCGG it is 0.00258; for GUGCCUUGCGCCGGGAAACCACGCAAGGGAUGGUGUCAAAUUCGGCGAAACCUAAGCGCCCGCCCGGGCGUAUGGCAACGCAGAGCCAAGCUUCGGCGCCUGCGCCGAUGGAGGUGUAGUGACUAGACGGCACCCACCUAAGGCCAACGCUAUGGUGAAGGCAUAGUCAAGGGAGCGGCGAAAGUCACACAAACCGG it is 0.00231.

For the variant GUGCCUUGCGCCGGGAAACCACGCAAGGGAUGGUGUCAAAUUCGGCGAAACCUAAGCGCCCGCCCGGGCGUAUGGCAACGCAGAGCCAAGCUUCGGCGCCUGCGCCGAUGGAGGUGUAGUGACUAGACGGCACCCACCUAAGGCCAACGGUAUGGUGAAGGCAUAGUCUAGGGAGCGGCGAAAGUCACACAAACCGG, the reverse-splicing fitness was determined as 0.0028. Under GUGCCUUGCGCCGGGAAACCACGCAAGGGAUGGUGUCAAAUUCGGCGAAACCUAAGCGCCCGCCCGGGCGUAUGGCAACGCAGAGCCAAGCUUCGGCGCCUGCGCCGAUGGAGGUGUAGUGACUAGACGGCACCCACCUAAGGCCAACGGUAUGGUGAAGGCAUAGUCUAGGGAGGGGCGAAAGUCACACAAACCGG stands 0.00231; under GUGCCUUGCGCCGGGAAACCACGCAAGGGAUGGUGUCAAAUUCGGCGAAACCUAAGCGCCCGCCCGGGCGUAUGGCAACGCAGAGCCAAGCUUCGGCGCCUGCGCCGAUGGAGGUGUAGUGACUAGACGGCACCCACCUAAGGCCAACGGUAUGGUGAAGGCAUAGUCUAGGGAGAGGCGAAAGUCACACAAACCGG, 0.00268. For the variant GUGCCUUGCGCCGGGAAACCACGCAAGGGAUGGUGUCAAAUUCGGCGAAACCUAAGCGCCCGCCCGGGCGUAUGGCAACGCAGAGCCAAGCUUCGGCGCCUGCGCCGAUGGAGGUGUAGUGACUAGACGGCACCCACCUAAGGCCAACGUUAUGGUGAAGGCAUAGUCCAGGGAGUGGCGAAAGUCACACAAACCGG, the reverse-splicing fitness came to 0.0111. Under GUGCCUUGCGCCGGGAAACCACGCAAGGGAUGGUGUCAAAUUCGGCGAAACCUAAGCGCCCGCCCGGGCGUAUGGCAACGCAGAGCCAAGCUUCGGCGCCUGCGCCGAUGGAGGUGUAGUGACUAGACGGCACCCACCUAAGGCCAACGUUAUGGUGAAGGCAUAGUCGAGGGAGAGGCGAAAGUCACACAAACCGG stands 0.00301; under GUGCCUUGCGCCGGGAAACCACGCAAGGGAUGGUGUCAAAUUCGGCGAAACCUAAGCGCCCGCCCGGGCGUAUGGCAACGCAGAGCCAAGCUUCGGCGCCUGCGCCGAUGGAGGUGUAGUGACUAGACGGCACCCACCUAAGGCCAACGUUAUGGUGAAGGCAUAGUCGAGGGAGCGGCGAAAGUCACACAAACCGG, 0.0025.

As to GUGCCUUGCGCCGGGAAACCACGCAAGGGAUGGUGUCAAAUUCGGCGAAACCUAAGCGCCCGCCCGGGCGUAUGGCAACGCAGAGCCAAGCUUCGGCGCCUGCGCCGAUGGAGGUGUAGUGACUAGACGGCACCCACCUAAGGCCAACGUUAUGGUGAAGGCAUAGUCGAGGGAGGGGCGAAAGUCACACAAACCGG, the reverse-splicing fitness was found to be 0.00192. GUGCCUUGCGCCGGGAAACCACGCAAGGGAUGGUGUCAAAUUCGGCGAAACCUAAGCGCCCGCCCGGGCGUAUGGCAACGCAGAGCCAAGCUUCGGCGCCUGCGCCGAUGGAGGUGUAGUGACUAGACGGCACCCACCUAAGGCCAACGGUAUGGUGAAGGCAUAGUCCAGGGAGGGGCGAAAGUCACACAAACCGG: the reverse-splicing fitness amounted to 0.00262.

Regarding GUGCCUUGCGCCGGGAAACCACGCAAGGGAUGGUGUCAAAUUCGGCGAAACCUAAGCGCCCGCCCGGGCGUAUGGCAACGCAGAGCCAAGCUUCGGCGCCUGCGCCGAUGGAGGUGUAGUGACUAGACGGCACCCACCUAAGGCCAACGGUAUGGUGAAGGCAUAGUCCAGGGAGCGGCGAAAGUCACACAAACCGG, the reverse-splicing fitness was 0.00393. Under GUGCCUUGCGCCGGGAAACCACGCAAGGGAUGGUGUCAAAUUCGGCGAAACCUAAGCGCCCGCCCGGGCGUAUGGCAACGCAGAGCCAAGCUUCGGCGCCUGCGCCGAUGGAGGUGUAGUGACUAGACGGCACCCACCUAAGGCCAACGGUAUGGUGAAGGCAUAGUCCAGGGAGAGGCGAAAGUCACACAAACCGG stands 0.00295; under GUGCCUUGCGCCGGGAAACCACGCAAGGGAUGGUGUCAAAUUCGGCGAAACCUAAGCGCCCGCCCGGGCGUAUGGCAACGCAGAGCCAAGCUUCGGCGCCUGCGCCGAUGGAGGUGUAGUGACUAGACGGCACCCACCUAAGGCCAACGUUAUGGUGAAGGCAUAGUCUAGGGAGAGGCGAAAGUCACACAAACCGG, 0.0026.

For GUGCCUUGCGCCGGGAAACCACGCAAGGGAUGGUGUCAAAUUCGGCGAAACCUAAGCGCCCGCCCGGGCGUAUGGCAACGCAGAGCCAAGCUUCGGCGCCUGCGCCGAUGGAGGUGUAGUGACUAGACGGCACCCACCUAAGGCCAACGUUAUGGUGAAGGCAUAGUCUAGGGAGCGGCGAAAGUCACACAAACCGG, the reverse-splicing fitness was 0.0025. Take GUGCCUUGCGCCGGGAAACCACGCAAGGGAUGGUGUCAAAUUCGGCGAAACCUAAGCGCCCGCCCGGGCGUAUGGCAACGCAGAGCCAAGCUUCGGCGCCUGCGCCGAUGGAGGUGUAGUGACUAGACGGCACCCACCUAAGGCCAACGUUAUGGUGAAGGCAUAGUCUAGGGAGGGGCGAAAGUCACACAAACCGG: the reverse-splicing fitness was 0.00193. In the case of GUGCCUUGCGCCGGGAAACCACGCAAGGGAUGGUGUCAAAUUCGGCGAAACCUAAGCGCCCGCCCGGGCGUAUGGCAACGCAGAGCCAAGCUUCGGCGCCUGCGCCGAUGGAGGUGUAGUGACUAGACGGCACCCACCUAAGGCCAACGUUAUGGUGAAGGCAUAGUCAAGGGAGAGGCGAAAGUCACACAAACCGG, the reverse-splicing fitness worked out at 0.00228. On to GUGCCUUGCGCCGGGAAACCACGCAAGGGAUGGUGUCAAAUUCGGCGAAACCUAAGCGCCCGCCCGGGCGUAUGGCAACGCAGAGCCAAGCUUCGGCGCCUGCGCCGAUGGAGGUGUAGUGACUAGACGGCACCCACCUAAGGCCAACGUUAUGGUGAAGGCAUAGUCAAGGGAGGGGCGAAAGUCACACAAACCGG, for which the reverse-splicing fitness came out at 0.00215.

For GUGCCUUGCGCCGGGAAACCACGCAAGGGAUGGUGUCAAAUUCGGCGAAACCUAAGCGCCCGCCCGGGCGUAUGGCAACGCAGAGCCAAGCUUCGGCGCCUGCGCCGAUGGAGGUGUAGUGACUAGACGGCACCCACCUAAGGCCAACGUUAUGGUGAAGGCAUAGUCAAGGGAGCGGCGAAAGUCACACAAACCGG, the reverse-splicing fitness is 0.00215.

Turning to GUGCCUUGCGCCGGGAAACCACGCAAGGGAUGGUGUCAAAUUCGGCGAAACCUAAGCGCCCGCCCGGGCGUAUGGCAACGCAGAGCCAAGCUUCGGCGCCUGCGCCGAUGGAGGUGUAGUGACUAGACGGCACCCACCUAAGGCCAACGGUAUGGUGAAGGCAUAGUCGAGGGAGCGGCGAAAGUCACACAAACCGG, the reverse-splicing fitness turned out to be 0.00289. Under GUGCCUUGCGCCGGGAAACCACGCAAGGGAUGGUGUCAAAUUCGGCGAAACCUAAGCGCCCGCCCGGGCGUAUGGCAACGCAGAGCCAAGCUUCGGCGCCUGCGCCGAUGGAGGUGUAGUGACUAGACGGCACCCACCUAAGGCCAACGGUAUGGUGAAGGCAUAGUCGAGGGAGGGGCGAAAGUCACACAAACCGG stands 0.00217; under GUGCCUUGCGCCGGGAAACCACGCAAGGGAUGGUGUCAAAUUCGGCGAAACCUAAGCGCCCGCCCGGGCGUAUGGCAACGCAGAGCCAAGCUUCGGCGCCUGCGCCGAUGGAGGUGUAGUGACUAGACGGCACCCACCUAAGGCCAACGCUAUGGUGAAGGCAUAGUCAAGGGAGUGGCGAAAGUCACACAAACCGG, 0.00203; under GUGCCUUGCGCCGGGAAACCACGCAAGGGAUGGUGUCAAAUUCGGCGAAACCUAAGCGCCCGCCCGGGCGUAUGGCAACGCAGAGCCAAGCUUCGGCGCCUGCGCCGAUGGAGGUGUAGUGACUAGACGGCACCCACCUAAGGCCAACGCUAUGGUGAAGGCAUAGUCGAGGGAGUGGCGAAAGUCACACAAACCGG, 0.00315. Regarding GUGCCUUGCGCCGGGAAACCACGCAAGGGAUGGUGUCAAAUUCGGCGAAACCUAAGCGCCCGCCCGGGCGUAUGGCAACGCAGAGCCAAGCUUCGGCGCCUGCGCCGAUGGAGGUGUAGUGACUAGACGGCACCCACCUAAGGCCAACGUUAUGGUGAAGGCAUAGUCCAGGGAGCGGCGAAAGUCACACAAACCGG, the reverse-splicing fitness came to 0.00422. Turning to GUGCCUUGCGCCGGGAAACCACGCAAGGGAUGGUGUCAAAUUCGGCGAAACCUAAGCGCCCGCCCGGGCGUAUGGCAACGCAGAGCCAAGCUUCGGCGCCUGCGCCGAUGGAGGUGUAGUGACUAGACGGCACCCACCUAAGGCCAACGUUAUGGUGAAGGCAUAGUCCAGGGAGGGGCGAAAGUCACACAAACCGG, the reverse-splicing fitness was determined as 0.00292. As to GUGCCUUGCGCCGGGAAACCACGCAAGGGAUGGUGUCAAAUUCGGCGAAACCUAAGCGCCCGCCCGGGCGUAUGGCAACGCAGAGCCAAGCUUCGGCGCCUGCGCCGAUGGAGGUGUAGUGACUAGACGGCACCCACCUAAGGCCAACGUUAUGGUGAAGGCAUAGUCCAGGGAGAGGCGAAAGUCACACAAACCGG, the reverse-splicing fitness is 0.00447. Under GUGCCUUGCGCCGGGAAACCACGCAAGGGAUGGUGUCAAAUUCGGCGAAACCUAAGCGCCCGCCCGGGCGUAUGGCAACGCAGAGCCAAGCUUCGGCGCCUGCGCCGAUGGAGGUGUAGUGACUAGACGGCACCCACCUAAGGCCAACGUUAUGGUGAAGGCAUAGUCUAGGGAGUGGCGAAAGUCACACAAACCGG stands 0.00308. As to GUGCCUUGCGCCGGGAAACCACGCAAGGGAUGGUGUCAAAUUCGGCGAAACCUAAGCGCCCGCCCGGGCGUAUGGCAACGCAGAGCCAAGCUUCGGCGCCUGCGCCGAUGGAGGUGUAGUGACUAGACGGCACCCACCUAAGGCCAACGUUAUGGUGAAGGCAUAGUCAAGGGAGUGGCGAAAGUCACACAAACCGG, the reverse-splicing fitness was found to be 0.00248. Under GUGCCUUGCGCCGGGAAACCACGCAAGGGAUGGUGUCAAAUUCGGCGAAACCUAAGCGCCCGCCCGGGCGUAUGGCAACGCAGAGCCAAGCUUCGGCGCCUGCGCCGAUGGAGGUGUAGUGACUAGACGGCACCCACCUAAGGCCAACGUUAUGGUGAAGGCAUAGUCGAGGGAGUGGCGAAAGUCACACAAACCGG stands 0.00298.
